From patent US20240392013A1, “IL1RAP ANTIBODIES AND USES THEREOF” (STELEXIS THERAPEUTICS, LLC, priority 2021, published 2024)

T1: hIL1RAP (Homo sapiens, UniProt Q9NPH3)
T1 sequence (Q9NPH3 21-367 limits assumed): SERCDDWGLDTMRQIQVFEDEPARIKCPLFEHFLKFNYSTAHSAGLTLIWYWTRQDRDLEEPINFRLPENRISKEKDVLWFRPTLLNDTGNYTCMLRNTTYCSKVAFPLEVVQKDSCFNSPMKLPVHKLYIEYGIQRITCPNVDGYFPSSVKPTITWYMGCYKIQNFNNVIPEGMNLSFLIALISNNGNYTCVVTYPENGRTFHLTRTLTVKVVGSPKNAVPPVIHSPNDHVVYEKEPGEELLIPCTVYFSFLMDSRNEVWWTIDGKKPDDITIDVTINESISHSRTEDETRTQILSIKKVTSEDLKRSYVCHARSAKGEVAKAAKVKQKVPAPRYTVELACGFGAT

T2: IL1R1/IL1β/IL1RAP complex (Homo sapiens, UniProt Q9NPH3)
T2 construct: extracellular domain Fc-tagged, Cat #10121-H02H; Fc; purchased Sino Biological 10121-H02H (IL1RAP-Fc); 10126-H08H (IL1R1-His); 10139-HNAE (IL1β)
T2 sequence (Q9NPH3 21-367 limits assumed): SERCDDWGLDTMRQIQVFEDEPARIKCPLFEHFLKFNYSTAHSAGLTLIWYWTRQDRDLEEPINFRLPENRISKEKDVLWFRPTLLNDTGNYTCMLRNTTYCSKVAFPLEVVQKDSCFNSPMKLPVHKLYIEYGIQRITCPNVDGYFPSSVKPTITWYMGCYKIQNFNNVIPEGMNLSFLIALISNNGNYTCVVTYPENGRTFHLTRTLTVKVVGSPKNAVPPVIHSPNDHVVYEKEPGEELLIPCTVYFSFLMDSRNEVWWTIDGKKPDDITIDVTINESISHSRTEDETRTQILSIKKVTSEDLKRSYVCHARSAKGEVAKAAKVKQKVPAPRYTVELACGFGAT

B1: 74804_12A21B: anti-IL1RAP mAb; VH SEQ ID NO:6, VL SEQ ID NO:23, κ light chain (antibody, V domains shown)
VH: QVQLLQSGAEVKKPGSSVKVSCKASGGTFSIYAIDWVRQAPGQGLEWMGGIIPIFGTANSAQKFQGRVTITADKSTSTAYMELSSLRSEDTAVYYCARNGATSDAFDMWGQGTMVTVSS
VL: EIVLTQSPGTLSLSPGERATLSCRASLSVSSNYLAWFQQRPGQAPRLLIHGVSRRATGIPDRFSGSGSGTDFTLTISRLEPEDFAVYYCQQYGSSPLTFGGGTKVEIK
modifications: 74804_12A21B VH and 74804_29D13A VH; 74804_12A21B VL
B2: 74804_43F04A: anti-IL1RAP mAb; VH SEQ ID NO:7, VL SEQ ID NO:22, κ light chain (antibody, V domains shown)
VH: QVQLLQSGAEVKKPGSSVKVSCKASGGTFSIYAIDWVRQAPGQGLEWMGGIIPIFGTENSAQNFQGRITITADKSTNTAYMELSSLRSEDTAVYYCARNGATSDAFDIWGQGTMVTVFS
VL: EIVLTQSPGTLSLSPGERATLSCRASLSVSSNYLAWFQQRPGQAPRLLIYGVSRRATGIPDRFSGSGSGTDFTLTISRLEPEDFAVYYCQQYGSSPLTFGGGTKVEIK
modifications: 74804_43F04A VH; 74804_07K10A VL, 74804_29D13A VL and 74804_43F04A VL

Assays:
hIL1RAP [1] = target: T1, hIL1RAP; test: Binding of mAbs to human IL1RAP protein by cell-free ELISA; parameters: extracellular domain His-tagged, Cat #10121-H08H; His; purchased Sino Biological 10121-H08H; details: FIG. 1
Procedure: Recombinant human or mouse IL1RAP proteins (Sino Biological, Beijing, China; Cat #10121-H08H and Sino Biological, Cat #52657-M08H respectively) were diluted in PBS, pH 7.4 at concentration of 1 μg/ml, coated on high-binding 384-well clear plates and incubated overnight at 4° C. Following, plates were washed 3× with 0.05% Tween-20 in PBS, pH 7.5 and then blocked with 1% BSA in PBS for 1 hour at room temperature. After 3× washes, wells were incubated with each antibody at the highest concentration of 100 nM followed by seven serial half log dilutions (in 1% BSA and 0.05% Tween-20 in PBS) for 1 hour at room temperature. Plates were then washed 3× and incubated with […] detection antibody (Medna, TX, USA; Cat #D8212, 0.5 μg/ml diluted in 0.02% Tween-20 in PBS). After 5× washes, Supersignal ELISA Pico substrate (Thermofisher, MA, USA; Cat #37069) was applied to wells and chemiluminescent signal was read on Sprectramax L for 200 ms/well. Similarly, detection with specific κ and λ antibodies was conducted to define light chain isotyping.
Binding of mAbs to human IL1RAP protein was determined by cell-free ELISA. mAbs bound to human IL1RAP and EC50 values were calculated at the nM range.

cyIL1RAP = test: Kinetics of IL1RAP mAbs by Octet, cynomolgus IL1RAP; assay type: binding
Procedure: (§1) Antibodies were diluted in kinetics buffer (0.1% BSA, 0.02% Tween-20 and 0.05% NaN3 in PBS) and loaded onto 16 channel anti-mouse IgG Fc capture sensors (AMC, Cat #2001073; Sartorius, Göttingen, Germany). Human, huIL1RAP-His (Sino Biological, lot: MB08MA1301), and monkey, cyIL1RAP-His (Lake Pharma, NY, USA; lot:16205819371) proteins were titrated starting from the highest concentration of 100 nM and followed by 50 nM and 25 nM. Purified antibodies were loaded at 5 μg/ml in kinetics buffer. The experimental parameters selected to determine the kinetic constants were Baseline for 60 s, Loading of antibody to sensor for 180 s, Association of analyte to antibody for 120 s, Dissociation for 1200 s and Regeneration in 10 mM Glycine pH 1.7 for 4×30 s.
(§2) Regeneration cycle tracking was selected for 12 cycles. Binding to human and cynomolgus IL1RAP was measured and KD (M) kinetics were calculated. Also, the disassociation rate (Kdis) (1/s) and association rate (Kon) (1/Ms) kinetics were calculated (data not shown).

[2] = tested on: IL1-induced NFκB activity; test: HEK-BlueIL1β NFκB Reporter Assay; assay type: cell-based; details: nM range, read-out: IC50, inhibition of IL1-induced NFκB activity
Procedure: The HEK-Blue IL1β (Invivogen, Cat #hkb-il1b) cell line was used to monitor NFκB activity upon stimulation with IL1β cytokine. In this cell line the secreted embryonic alkaline phosphatase reporter gene (SEAP) is inducibly expressed under the control of IFN-β minimal promoter fused to NFκB/AP-1. Specificity to IL1β cytokine was achieved by blockage of TNF-α response. The cells were maintained in the presence of hygromycin (200 μg/ml) and zeocin (100 μg/ml).
For the functional assay, cells were plated at a density of 5×10^4 cells/well in 96-well plates. Cells were treated with each antibody at the highest concentration of 200 μg/ml followed by seven serial 1:3 dilutions and incubated for 45 minutes at 37° C./5% CO2 in humified incubator. Cells were then stimulated with IL1β ([…]) and incubated overnight at 37° C./5% CO2 in humified incubator. Every treatment was conducted in triplicates. Following, supernatants from each well were mixed with Quanti-Blue substrate (Invivogen, CA USA; Cat #rep-qb1) according to manufacturer's recommendations and secreted SEAP was measured using spectrophotometer at 650 nm.

[3] = target: T2, IL1R1/IL1β/IL1RAP complex; test: Blocking of IL1R1/IL1β/IL1RAP complex formation, cell-free ELISA; assay type: biochemical; details: FIG. 4
Procedure: High-binding 96-well plates were coated with IL1RAP-Fc protein (Sino Biological, Cat #10121-H02H) at concentration of 4 µg/ml and incubated overnight at 4° C. After 3× washes with 0.05% Tween-20 in PBS, pH 7.5, plates were blocked with 1% BSA in PBS for 1 hour at room temperature. Following, wells were incubated with each antibody at concentration of 50 nM for 1 hour at room temperature. Plates were then washed 3× and wells were incubated with premixed complex of IL1R1-His protein (Sino Biological, Cat #10126-H08H) at concentration of […] and IL1β cytokine (Sino Biological, Cat #10139-HNAE) at concentration of […] 1 hour at room temperature. IL1R1/IL1β complex was preincubated in assay buffer (1% BSA in PBS, pH 7.5) for 20 min at room temperature. After 3× washes, plates were incubated with anti-His HRP detection antibody (Medna, Cat #D8212, […]) for 1 hour at room temperature. Following 5× washes, SuperPico chemiluminescent substrate was applied to wells and signal was read on Spectramax M5.

hIL1RAP [4] = target: T1, hIL1RAP; test: Kinetics of IL1RAP mAbs by Octet, human IL1RAP; assay type: binding; parameters: extracellular domain His-tagged, Cat #10121-H08H; His; purchased Sino Biological lot MB08MA1301 (catalogue number not given)
Procedure: as §1, §2

| Molecule | Binding to human IL1RAP (hIL1RAP [1]) | cyIL1RAP kdis(1/s) (cyIL1RAP) [s⁻¹] | cyIL1RAP kon(1/Ms) (cyIL1RAP) [M⁻¹ s⁻¹] | IC50 [2] [nM] | Blocking of IL1R1/IL1β/IL1RAP complex formation [3] | hIL1RAP kdis(1/s) (hIL1RAP [4]) [s⁻¹] | hIL1RAP kon(1/Ms) (hIL1RAP [4]) [M⁻¹ s⁻¹] |
| --- | --- | --- | --- | --- | --- | --- | --- |
| B1 | bound to human IL1RAP in a dose dependent manner | 0.000441 | 342200 | 1.31 | block IL1R1/IL1β/IL1RAP complex formation in a dose dependent manner | 0.000287 | 307700 |
| B2 | bound to human IL1RAP in a dose dependent manner | 0.0004 | 412100 | 2.29 | block IL1R1/IL1β/IL1RAP complex formation in a dose dependent manner | 0.000149 | 350200 |
